Data reported in article PMC4207663.

What was measured:
[1] = target: Rco_(LS20)-His(6) (Bacillus subtilis (plasmid pLS20cat)); experiment: AUC; sedimentation velocity; 10 uM purified Rco_(LS20); 20 mM Tris-HCl, 250 mM NaCl, 10 mM MgCl2, 1 mM EDTA, 100 mM glycerol, pH 7.4; 43-48 krpm; 280 nm; c(s) analysis with SEDFIT
[2] = target: Rco_(LS20)-His(6) (Bacillus subtilis (plasmid pLS20cat)); experiment: AUC; sedimentation equilibrium; 10 to 30 uM Rco_(LS20); same buffer as sedimentation velocity; 7,000 to 10,000 rpm; 280 nm; single species model (HeteroAnalysis)

Rco_(LS20)-His(6) (natural protein)
stoichiometry N [1]: 4 | stoichiometry N [2]: 4
